Reference: US6033903, “Method of expressing and secreting soluble extracellular domains of human gonadotropin hormone receptors” (Applied Research Systems, Ars Holding N.V., dated 2000)

Biological target: human follicle stimulating hormone (recombinant hFSH) (human, UniProt P01215, ^125 I label on the tracer form (which chain and residue is not stated); unlabelled in the cold competitor, the affinity resin and the cell assay)
Experiment: 125I-hFSH radioligand binding, summary of Example 2

B1: soluble hFSHR-EC secreted from baculovirus-infected insect cells (gp67 signal peptide fusion, pAcGP67-hFSHR-EC) (receptor)
chain: ADQCHHRICHCSNRVFLCQESKVTEIPSDLPRNAIELRFVLTKLRVIQKGAFSGFGDLEKIEISQNDVLEVIEADVFSNLPKLHEIRIEKANNLLYINPEAFQNLPNLQYLLISNTGIKHLPDVHKIHSLQKVLLDIQDNINIHTIERNSFVGLSFESVILWLNKNGIQEIHNCAFNGTQLDELNLSDNNNLEELPNDVFHGASGPVILDISRTRIHSLPSYGLENLKKLRARSTYNLKKLPTLEKLVALMEASLTYPSHCCAFANWRRQISELHPICNKSILRQEVDYMTQTRGQRSSLAEDNESSYSRGFDMTYTEFDYDLCNEVVDVTCSPKPDAFNPCEDIMGYNILR
binding result: binds
